Results: paper PMC4523612 (The Journal of Cell Biology, 2015)

T1: Eg5 (UniProt P52732 1-1056)
T1 sequence: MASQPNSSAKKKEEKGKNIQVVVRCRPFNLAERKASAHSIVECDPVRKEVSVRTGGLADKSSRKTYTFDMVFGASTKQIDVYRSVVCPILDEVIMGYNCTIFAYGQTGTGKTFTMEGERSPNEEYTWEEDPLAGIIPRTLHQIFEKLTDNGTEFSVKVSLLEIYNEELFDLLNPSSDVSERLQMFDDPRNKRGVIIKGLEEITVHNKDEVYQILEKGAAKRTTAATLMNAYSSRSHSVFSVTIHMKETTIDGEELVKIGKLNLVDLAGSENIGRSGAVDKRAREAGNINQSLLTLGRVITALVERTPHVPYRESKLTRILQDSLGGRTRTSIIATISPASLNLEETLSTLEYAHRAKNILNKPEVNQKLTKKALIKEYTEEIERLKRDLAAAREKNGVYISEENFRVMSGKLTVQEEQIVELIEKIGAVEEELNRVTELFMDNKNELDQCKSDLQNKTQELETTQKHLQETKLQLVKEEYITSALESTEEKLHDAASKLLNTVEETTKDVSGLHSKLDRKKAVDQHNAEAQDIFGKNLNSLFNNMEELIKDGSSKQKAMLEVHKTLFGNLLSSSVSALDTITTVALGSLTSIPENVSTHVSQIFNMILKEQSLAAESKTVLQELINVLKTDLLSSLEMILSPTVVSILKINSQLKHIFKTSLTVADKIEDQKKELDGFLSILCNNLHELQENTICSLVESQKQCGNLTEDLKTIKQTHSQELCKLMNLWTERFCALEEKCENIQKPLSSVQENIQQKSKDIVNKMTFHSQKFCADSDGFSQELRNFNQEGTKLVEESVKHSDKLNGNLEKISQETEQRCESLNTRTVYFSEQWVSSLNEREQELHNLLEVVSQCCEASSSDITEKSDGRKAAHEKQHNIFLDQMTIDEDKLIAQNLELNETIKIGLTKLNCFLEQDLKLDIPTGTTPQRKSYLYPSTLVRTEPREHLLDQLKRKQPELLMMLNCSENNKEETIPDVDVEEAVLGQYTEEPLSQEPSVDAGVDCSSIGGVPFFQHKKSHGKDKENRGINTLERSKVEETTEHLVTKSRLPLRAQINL


Legend:
Eg5 [1] = target: Eg5 (UniProt P52732)
Eg5 [2] = target: T1, Eg5

| binding relative to WT (% less than WT) (Eg5 [1]) | binding relative to WT (Eg5 [2]) | Molecule |
| --- | --- | --- |
| 41 | – | GFP-TPX2-2D (from UniProt Q9ULW0 1-747) (natural protein) |
| – | 41 % less than WT | GFP-TPX2-2A (S121/125A) (natural protein) MSQVKSSYSYDAPSDFINFSSLDDEGDTQNIDSWFEEKANLENKLLGKNGTGGLFQGKTPLRKANLQQAIVTPLKPVDNTYYKEAEKENLVEQSIPSNACSSLEVEAAISRKTPAQPQRRALRLAAQKDLEQKEKHHVKMKAKRCATPVIIDEILPSKKMKVSNNKKKPEEEGSAHQDTAEKNASSPEKAKGRHTVPCMPPAKQKFLKSTEEQELEKSMKMQQEVVEMRKKNEEFKKLALAGIGQPVKKSVSQVTKSVDFHFRTDERIKQHPKNQEEYKEVNFTSELRKHPSSPARVTKGCTIVKPFNLSQGKKRTFDETVSTYVPLAQQVEDFHKRTPNRYHLRSKKDDINLLPSKSSVTKICRDPQTPVLQTKHRARAVTCKSTAELEAEELEKLQQYKFKARELDPRILEGGPILPKKPPVKPPTEPIGFDLEIEKRIQERESKKKTEDEHFEFHSRPCPTKILEDVVGVPEKKVLPITVPKSPAFALKNRIRMPTKEDEEEDEPVVIKAQPVPHYGVPFKPQIPEARTVEICPFSFDSRDKERQLQKEKKIKELQKGEVPKFKALPLPHFDTINLPEKKVKNVTQIEPFCLETDRRGALKAQTWKHQLEEELRQQKEAACFKARPNTVISQEPFVPKKEKKSVAEGLSGSLVQEPFQLATEKRAKERQELEKRMAEVEAQKAQQLEEARLQEEEQKKEELARLRRELVHKANPIRKYQGLEIKSSDQPLTVPVSPKFSTRFHC |
